Results: patent publication US7211565 (ESPERION THERAPEUTICS, dated 2007)
Square brackets hold non-standard residues; d marks the D form. Ends that are not written are not given here.

Target: T1, lecithin:cholesterol acyltransferase (LCAT), purified from human plasma (human, UniProt P04180 25-440)
T1 sequence (looked up): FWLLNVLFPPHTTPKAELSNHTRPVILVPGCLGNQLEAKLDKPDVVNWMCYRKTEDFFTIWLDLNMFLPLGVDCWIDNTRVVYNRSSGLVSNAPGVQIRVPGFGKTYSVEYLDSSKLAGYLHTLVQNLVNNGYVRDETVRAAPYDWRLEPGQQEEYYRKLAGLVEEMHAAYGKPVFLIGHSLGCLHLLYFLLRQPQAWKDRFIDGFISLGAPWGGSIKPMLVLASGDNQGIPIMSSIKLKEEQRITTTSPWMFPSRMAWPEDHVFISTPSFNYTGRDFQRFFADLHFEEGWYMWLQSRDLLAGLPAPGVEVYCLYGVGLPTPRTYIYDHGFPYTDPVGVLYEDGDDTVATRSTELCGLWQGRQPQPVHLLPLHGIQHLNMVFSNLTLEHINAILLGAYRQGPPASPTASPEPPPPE
Assay: cell-based or functional assay

- ACTIVITY (%) LCAT: 19%
Binder: [dP]LFRELLNELLEALKQKLK [peptide 55 (SEQ ID NO:55)]
